Results reported in the DeepSol protein solubility set.

Experiment: soluble on expression in E. coli; label from the status in PepcDB or PDB records

Row | Sequence | soluble on expression in E. coli
1 | PPHVEYMRRLELADYEPASDSGHIRYYPKGRLVKTLLEQFITRKCIDYGAMEVETPIMYDRNHPTLRRYLERFPARQYIIKGDKREFFLRFAACFGQFLMLSSSTITYRNLPLKIYELTRYSFRKEQRGELVGLRRLRAFTMPDMHTVAKDMEQAKEEFFNQYRLSVEVLREIGLEPEDYEVAVRITKDFYEENREFVHSLVDILKKPILIEMWDHRFFYFVLKFEFNFVDALDKASALSTVQIDVENAERYGITFVDSDGKEKHPYILHCSVSGAVERVMYALLEKAK | not soluble
2 | MESLQNHFLIAMPSLDDTFFERTVIYLCEHDEKGAMGLVINKPLGIEVNSLLEQMDLPTEQVSADLAMGSQVLMGGPVSQDRGFVLHTSQPYWANSTELGSGLMLTTSRDVLTAIGSKRSPDKFLVALGYAGWSKNQLEQELADNSWLTIPADHALLFDINHEDRWQQASRSLGFEAWQLSTQAGHALEHHHHHH | soluble
3 | MGNTSSERSGGEKTHRRESRSGKDGTRPKILMDSAEDGDLFQSDDAKEFLAWRQDQESDSKTPLEERPTVFRWKGPGKEIYLSGSFNNWATKIPLNKSHNNFVAIIDLPEGEHQYKFYVDGHWTLDPKEPVVTNKSGVVNNVIKVRKTDFEVFDALKTDSEKCADMSDLSSSPPGPYHQDPYSTKSEDKLRSPPILPPHLLQVLLNKDTGISCDPTLLPEPNHVMLNHLYALSIKDGVMVLSATHRYKKKYVTTLLYKPI | not soluble
4 | MSFKVISTGPQAIFQDRGRFGFASAGVGTSGSFDRLSAARANHALGNDPNATVVEILLGGFEVEALHTTSIVFTGTEAEVMVRTAGGQSKNATTNTIIDVAAGERIRVEPATYGMRAYFAARGGFAVEKTLGSASTDLISHMGPRPIEPGDVIDVATDIADSQWWPKLRQLPTLWKRMPTETLTVIRGPRDKWFTQESLNNFFTQVFTVSNDSNRIGLRMHSSEPIQHRVEGELKSEGMVRGSIQIPPGGNPVVFGPDHPVTGGYPVIAVLTSRSCDRSAQLLPGDKVRFKLL | not soluble
5 | MVGYSSKLIFVSMITRHGDRAPFANIENANYSWGTELSELTPIGMNQEYNLGLQLRKRYIDKFGLLPEHYVDQSIYVLSSHTNRTVVSAQSLLMGLYPAGTGPLIGDGDPAIKDRFQPIPIMTLSADSRLIQFPYEQYLAVLKKYVYNSPEWQNKTKEAAPNFAKWQQILGNRISGLNDVITVGDVLIVAQAHGKPLPKGLSQEDADQIIALTDWGLAQQFKSQKVSYIMGGKLTNRMIEDLNNAVNGKSKYKMTYYSGHALTLLEVMGTLGVPLDTAPGYASNLEMELYKDGDIYTVKLRYNGKYVKLPIMDKNNSCSLDALNKYMQSINEKFQKHHHHHH | soluble
6 | MSLDWNRLKPTINQKVSAELNRPFAIRGDLGVVWERQKQETGWRSWVPWPHVHAEDIILGNPPDIPEVTMVHLPRVEATLAPLALLTKTVWLPWIKLEKPDARLIRLSEKNNNWTFNLANDDNKDANAKPSAWSFRLDNILFDQGRIAIDDKVSKADLEIFVDPLGKPLPFSEVTGSKGKADKEKVGDYVFGLKAQGRYNGEPLTGTGKIGGMLALRGEGTPFPVQADFRSGNTRVAFDGVVNDPMKMGGVDLRLKFSGDSLGDLYELTGVLLPDTPPFETDGRLVAKIDTEKSSVFDYRGFNGRIGDSDIHGSLVYTTGKPRPKLEGDVESRQLRLADLGPLIGVDSGKGAEKSKRSEQKKGEKSVQPAGKVLPYDRFETDKWDVMDADVRFKGRRIEHGSSLPISDLSTHIILKNADLRLQPLKFGIAGGSIAANIHLEGDKKPMQGRADIQARRLKLKELMPDVELMQKTLGEMNGDAELRGSGNSVAALLGNSNGNLKLLMNDGLVSRNLMEIVGLNVGNYIVGAIFGDDEVRVNCAAANLNIANGVARPQIFAFDTENALINVTGTASFASEQLDLTIDPESKGIRIITLRSPLYVRGTFKNPQAGVKAGPLIARGAVAAALATLVTPAAALLALISPSEGEANQCRTILSQMKKEGHHHHHH | soluble
7 | MTEFQLEKAATLKTIAIRAKKVGEMVDFYKKVMGFVLKSEENNLSIWGTREAGTQLLILEETRKAEDFHNEEKQMAYFSIKVPTEKEFLQIAQRVLEQDYPIDESFQIGTRQSMFITDLEGNQFEIFHDEATANSTSEKQPIVLKDLISEDLEPHQGLAAGSYLAHVQLKTNNQKEIKAYYEEVLGLKRNEKDQFVLEDGKATIGFQKPETSEVDQLPDPHLGLDFFTIKLSDQEHILAMEQQLTAKNQEFFIDQKKAIVTVFDPIGLEWWFVLK | not soluble
8 | MSVAGLKKQFHKATQKVSEKVGGAEGTKLDDDFKEMERKVDVTSRAVMEIMTKTIEYLQPNPASRAKLSMINTMSKIRGQEKGPGYPQAEALLAEAMLKFGRELGDDCNFGPALGEVGEAMRELSEVKDSLDIEVKQNFIDPLQNLHDKDLREIQHHLKKLEGRRLDFDYKKKRQGKIPDEELRQALEKFDESKEIAESSMFNLLEMDIEQVSQLSALVQAQLEYHKQAVQILQQVTVRLEERIRQASSQPRREYQPKPRMSLEFPTGDSTQPNGGLSHTGTPKPSGVQMDQPCCRALYDFEPENEGELGFKEGDIITLTNQIDENWYEGMLHGHSGFFPINYVEILVALPH | soluble
9 | MSMSHINYNHLYYFWHVYKEGSVVGAAEALYLTPQTITGQIRALEERLQGKLFKRKGRGLEPSELGELVYRYADKMFTLSQEMLDIVNYRKESNLLFDVGVADALSKRLVSSVLNAAVVEGEPIHLRCFESTHEMLLEQLSQHKLDMIISDCPIDSTQQEGLFSVRIGECGVSFWCTNPPPEKPFPACLEERRLLIPGRRSMLGRKLLNWFNSQGLNVEILGEFDDAALMKAFGAMHNAIFVAPTLYAYDFYADKTVVEIGRVENVMEEYHAIFAERMIQHPAVQRICNTDYSALFSPAVR | soluble
10 | MIFNIQRYSTHDGPGIRTVVFLKGCSLGCRWCQNPESRARSEDLLYDSRLCLAGCELCQQAAPAVITRTLDGLIIHRQNVNDSHIAALRDCCPTTALTVCGEEKSVEEIMATVLRDKPFYDRSGGGITLSGGEPFMNPTLAQALFEASHQAGIHTAVETCLHVPWKYIEPSLPFVDLFLADLKHVDEAVFQQWTDGSARRVLDNLQRLAQAGKKMIIRVPLIQGFNASEADIAAITDFAADRLQVSEIHYLPYHTLGMNKYQLLSQPYTAPDKPLDAPELLVFAQDYAQSKGLTAILRG | not soluble
11 | MDTELMKLDVHVTAWSRTPSSSGFLNSVMISRDRDFEEFIINDRDGSVTSLGSYQNPSRGPDPLIFLDFRNFEPNYVYQLLLSQFHDHVLSEHIADQIGYTFGTCNSPTSTTDLDQESEEEE | soluble
12 | MSDTPATRDFGLIDGRAVTGYVLSNRRGTRVCVLDLGGIVQEFSVLADGVRENLVVSFDDAASYADNPFQINKQIGRVAGRIRGAAFDINGRTYRVEANEGRNALHGGSHGLAVTRFNAVAADGRSVVLRSRLQQSADGYPNDLDLDISYRLDEDDRLTVSYRATALGDTVFDPTLHIYWRLDAGLHDAVLHIPQGGHMPADAEKLPVSTVSDDLEVFDFSRPKPLDAAVAALRRETGRAGFDDAYRVPSDIGRPAAVLQAGRRRRISIYSDRNGLVIFTAAPQDFARHDAGVYDALATEAQTLPDSLNWPEFGNIRLNKGDTREATIAYGIESLS | not soluble
13 | MLKILKRIVQDVTAASDLKEALGILVQRINTAINAEAVSVYLIDNKNAEYVLIATEGLNKQAEFRVRIALDCGLIGLIGRREEPINIENAPSHPDFYHNPLIGEDHLNAFLGVPIIQHRKLYGVLVVQQLEQRYFDDAEESFLITLAAQLGGIIAHAEATGELAELTQ | not soluble
14 | MASNVSLTGLAHDLKQRAENHPPIRIGLIGCGEMGTDLLSSIAHMDGITVAAVATRTPSRIFDAARLAYGEEGHVREVENASALTRTIEKGLIAATNDIDLVLRHEQIDIIVDATGYPEAGAEIGFKALENNKNLVMMNVEADVTIGAYLKHEAEKQGLIYTLGAGDEPTSCMELIEFVSALGHKI | not soluble
15 | MSLEIKPEDTWRLEDIFSTDDAWEKEFQEVKQLLPDAGGFQGKLGDSADKLYEALQYQDHLLERLGRLYSYAHMRYDQDTTNSFYQGLDDRIKNLYSQAASSLAYIVPEILAIDEEKISSFLDEKEELRLYKHSLEEINLQRPHVLSAEAEALLAQASEVLDAPGNTFGMLNNADLEFPSIKDENGEEVEVTHGRYIRFLESDDQRVRRDAFKAVYDTYGKFKNTFSSTLSSNVKKDNFYARVRNYDSARHAALSDNNIPESVYENLVNTVNDNLHLLHRYIKLRKEVLGLEKLHMYDLFTPLVKDVKMEIPYDEAKDYVLKGLEPLGEEYLSVLKEGFENRWVDVHENKGKRSGAYSSGAYGTNPYILMNWQDNVNNLFTLAHEFGHSVHSYYTRKTQPYPYGNYSIFVAEVASTCNEALLNDYLLKTIDDDQKRLYLLNHYLEGFRGTVFRQTMFAEFEHQIHQKAQNNEALTAEALTQDYYELNKKYFGEEDIIIDEEIGLEWSRIPHFYYNYYVYQYATGFSAATALSKQILEEGEPAVERYINFLKAGSSDYPIEVLKKAGVDMTSPAPIADACKVFEEKLNEMEELLNREGHHHHHH | soluble
16 | MGGIPDITPYPLTYSLGGVIPLSSVLEMLWVEKYRPRSLDDIVDQKHVVERLKQFVKQRNMPHLLFAGPPGTGKTTAAHALAHDLFGENYRQYMLELNASDERGINVIREKVKEFARSRTPPEIPFKIVLLDEADNMTSDAQQALRRLMELYSSVTRFILIANYPSKIIDPIQSRCAFFRFQPLSKQDVIERLRYIAENEGVDYEEEALDAIYEISEGDMRKAINVLQAASYLGKVTVDAVYRVVGMAKPREVREMLATALKGDFTAARSLLRKIMIEYGMSGEDVARQIHRELFSTELKMPEELRVLAADYLGEVHYRLVEGSDDDIQLSAFLAWLTMMSRKLEV | soluble
17 | MQIEKMKLSDLKAADYNPRVDLKPGMQEYEKLKQSILEFGFVDPPIYNIQTGNLVGGHQRVAVAKELGLFNEIEVSVVDLPLDKEKALNVALNKISGRWDEEKLSILLNELDDEAVNLTGFDTEEVDSLLASFNYEEDIEKPIIEDDFQVNEFIENHHEAKTKLGQLWKLGNHYLLCGDATKLSDVEKLLQGKKANLVVTDPPYNVAVKSDNKELNESGREKIMNDDMSDEEFDQFLMSVFQNYSNAMRDDSAIYVFHGSSYQREFENSMNAAGIVVRSQCIWVKNNATFGWSQYRWQHEPVFYAHKKKQAPSWYGDRKQTTIWQDDLLEDLPATIWKVPRDDVATYYHPTQKPLSLIAIPVRNSSKRQDIVLDLFGGSGSTLMTCEQLNRICYTLELDPLFCDVIIERFEKSTGIIAELVE | not soluble
18 | MAFKNTKTLVFVLDGKLRNIPIAALFDGQQYLIEKYAVALSPGLQLMAAQSLEQNKIKAIVAGISESRSGFAALPAVESEVKQISQTIPSSMLLNQKFTSQALADRIKSSRADVVHLATHGQFSSRIEDTFLLTWDGQVNVKDLSELLKNRSGDSSKAIELLVLSACDTATGDDRAVLGLAGLAVKSGARSTIATLWPVKDKAAEMLMTRFYDQLRKPKITKAEALRQAQINLIHQTDFQDPFFWSAFVLVGNWLLEHHHHHH | not soluble
19 | MGSDKIHHHHHHMSYQIEIGSIRCFVVAAEELHFRRAAIRLNMSQPTLSQQIKRLEELMGVQLFIRSTRRVDLTRAGASFLDHARDILLKIDEAILNAKLEAGGLSPGGEELIIGAISPATSQLLPLILSRFRQRFPRTRLAIKEVDSIELLRGIERGDFHVGLMRPPSNSNLVRFRHLLSERFVAVMPRQSALARKPALRLSDFAGHGVFALKRFELSCFETVYEQLSGAGLLIENDIAVSDTNTALALVTAGAGITFLPEWVSAMAPDGVVTRVVDDMSVEISMAVGWNPDCPVPGILPFVEFATLAAQNLISARK | not soluble
